Experimental data published in patent US20250025478.

How the values were obtained:
[1] = target: 6×His-CYLD (UniProt Q9NQC7)
[2] = target: GST-SPATA2 (UniProt Q9UM82)
[3] = test system: 3×-FLAG-RNF213

GST-SPATA2, sequence (Q9UM82 whole entry): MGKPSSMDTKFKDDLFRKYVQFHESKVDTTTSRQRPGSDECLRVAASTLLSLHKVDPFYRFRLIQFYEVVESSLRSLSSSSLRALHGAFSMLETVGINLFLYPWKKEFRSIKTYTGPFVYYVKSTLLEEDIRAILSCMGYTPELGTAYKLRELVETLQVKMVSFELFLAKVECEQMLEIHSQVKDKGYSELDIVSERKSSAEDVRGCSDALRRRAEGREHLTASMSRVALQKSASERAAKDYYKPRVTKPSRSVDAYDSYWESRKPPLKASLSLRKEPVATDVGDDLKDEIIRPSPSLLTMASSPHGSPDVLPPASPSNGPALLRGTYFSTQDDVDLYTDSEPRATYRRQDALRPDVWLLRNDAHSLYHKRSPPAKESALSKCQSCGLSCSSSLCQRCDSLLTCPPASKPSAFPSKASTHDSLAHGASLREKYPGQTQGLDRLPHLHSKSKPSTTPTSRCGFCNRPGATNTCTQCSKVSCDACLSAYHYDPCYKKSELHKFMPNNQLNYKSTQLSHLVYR
6×His-CYLD, sequence (Q9NQC7 whole entry): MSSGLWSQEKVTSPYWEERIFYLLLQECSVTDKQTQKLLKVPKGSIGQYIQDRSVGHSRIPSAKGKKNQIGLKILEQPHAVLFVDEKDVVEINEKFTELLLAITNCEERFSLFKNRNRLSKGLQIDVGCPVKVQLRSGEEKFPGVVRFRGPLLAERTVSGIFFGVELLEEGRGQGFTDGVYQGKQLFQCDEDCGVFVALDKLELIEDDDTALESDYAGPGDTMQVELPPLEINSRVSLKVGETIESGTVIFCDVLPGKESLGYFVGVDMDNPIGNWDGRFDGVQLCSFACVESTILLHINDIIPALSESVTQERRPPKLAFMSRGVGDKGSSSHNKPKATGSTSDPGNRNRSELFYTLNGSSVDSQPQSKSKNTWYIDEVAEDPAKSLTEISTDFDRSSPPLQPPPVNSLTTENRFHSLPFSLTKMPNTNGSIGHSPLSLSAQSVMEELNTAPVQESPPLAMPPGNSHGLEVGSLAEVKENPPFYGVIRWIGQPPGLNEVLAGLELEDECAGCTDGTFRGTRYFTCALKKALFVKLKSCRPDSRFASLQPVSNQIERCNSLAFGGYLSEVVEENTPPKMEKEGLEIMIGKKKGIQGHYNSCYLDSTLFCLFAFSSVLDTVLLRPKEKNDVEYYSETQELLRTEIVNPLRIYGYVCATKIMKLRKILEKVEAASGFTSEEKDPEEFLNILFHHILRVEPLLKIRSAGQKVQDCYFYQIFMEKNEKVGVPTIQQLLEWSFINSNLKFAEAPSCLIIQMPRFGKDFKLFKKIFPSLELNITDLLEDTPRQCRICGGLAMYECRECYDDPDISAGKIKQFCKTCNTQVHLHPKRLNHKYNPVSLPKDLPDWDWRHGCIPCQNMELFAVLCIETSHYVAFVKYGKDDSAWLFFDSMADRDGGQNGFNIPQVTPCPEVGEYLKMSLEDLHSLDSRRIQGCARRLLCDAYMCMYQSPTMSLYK

3×-FLAG-RNF213
in vitro ubiquitylation assay (UBE1, UBE2L3, HA-Ub) [1]: SPATA2 and CYLD, when tested alone or in equimolar concentrations, were ubiquitinated by 3×FLAG-RNF213
in vitro ubiquitylation assay (UBE1, UBE2L3, HA-Ub) [2]: SPATA2 and CYLD, when tested alone or in equimolar concentrations, were ubiquitinated by 3×FLAG-RNF213

3×-FLAG-RNF213^H4014A
in vitro ubiquitylation assay (UBE1, UBE2L3, HA-Ub) [1]: both proteins showed increased ubiquitylation when the RING mutant RNF213^H4014A (RING-dead) was assayed (compared with WT RNF213)
in vitro ubiquitylation assay (UBE1, UBE2L3, HA-Ub) [2]: both proteins showed increased ubiquitylation when the RING mutant RNF213^H4014A (RING-dead) was assayed (compared with WT RNF213)

3×-FLAG-RNF213^H4014A/H4509A
in vitro ubiquitylation assay (UBE1, UBE2L3, HA-Ub) [1]: RING/RZ-dead was unable to ubiquitylate CYLD/SPATA2
in vitro ubiquitylation assay (UBE1, UBE2L3, HA-Ub) [2]: RING/RZ-dead was unable to ubiquitylate CYLD/SPATA2

3×-FLAG-RNF213^H4509A
in vitro ubiquitylation assay (UBE1, UBE2L3, HA-Ub) [1]: There was no significant ubiquitylation of CYLD or SPATA2 when an RZ mutant ("RZ-dead") form of RNF213 (RNF213^H4509A) was tested
in vitro ubiquitylation assay (UBE1, UBE2L3, HA-Ub) [2]: There was no significant ubiquitylation of CYLD or SPATA2 when an RZ mutant ("RZ-dead") form of RNF213 (RNF213^H4509A) was tested

recombinant GST-PTP1B
in vitro dephosphorylation of ABL1-phosphorylated RNF213 [3]: GST-PTP1B dephosphorylated ABL1-phosphorylated RNF213
